Ends that are not written are not given here.
How the values were obtained:
A1PI [1] = biological target: T1, A1PI (Homo sapiens, UniProt P01009); assay: Purification of A1PI from Effluent II+III on peptide column, A1PI mass balance; format: binding; details: 1 ml Eff. II+III, 4° C.; for Mass A1PI per Eluate Fraction, 2% Acetic Acid / Mass A1PI per Eluate Fraction, Flowthrough / Mass A1PI per Eluate Fraction, 1M NaCl: * Below detection limit
T1 construct: Human plasma is currently the only approved source of therapeutic AlPI
Protocol: (§1) Sequences 1-11 and 15 were assayed with Effluent II+III (Eff. II+III). Eff. II+III is a process intermediate in the Cohn plasma fractionation process. The feed stream contains 20% (by volume) ethanol, 20-25 mg/ml hSA and approximately 1 mg/ml AlPI. The stream also contains other proteins including anti-thrombin III (AT3), immunoglobin G (IgG), immunoglobin A (IgA), apolipoprotein alpha-1 (Apo A-1), transferrin (Trf), haptoglobin (Hpt), and alpha-1 acid glycoprotein (AAG) at concentrations ranging from 0.1-1 mg/ml.
(§2) The columns were assayed using the same technique as the hSA+AlPI experiments, allowing for a 10 minute residence time followed by a constant flow rate of 865 μl/min with step elutions of 1M NaCl, 3M NaCl, and 2% acetic acid. All experiments were conducted at 4° C. The mass balances for the injection of 1 ml Eff. […] The AlPI was enriched from 3% of the total protein in the feed to upwards of 50% in the acid eluate.

A1PI [2] = biological target: T1, A1PI; assay: A1PI binding on peptide-resin column, injection of 1 mg A1PI in equilibration buffer; details: for % of Total A1PI Eluted by Fraction (Based on Absorbance at 280 nm), 1M NaCl / % of Total A1PI Eluted by Fraction (Based on Absorbance at 280 nm), 2% Acetic Acid / % of Total A1PI Eluted by Fraction (Based on Absorbance at 280 nm), Flowthrough: Trp position mutations, 1 mg A1PI
Method in brief: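 Peptides synthesized on A-Totda-Toyopearl chelate resin (0.1 mmole/g) packed in 0.4×5 cm columns; 1 mg A1PI injected in equilibration buffer at 4 °C or 20 °C, 865 or 523 μl/min. Flowthrough, 1M/3M NaCl washes and 2% acetic acid eluate quantified by A280 or immunonephelometry as percent of total eluted.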

A1PI [3] = biological target: T1, A1PI; assay: A1PI purification from 5 mg hSA + 1 mg A1PI on peptide column, A1PI mass balance; format: binding; details: A1PI, 5 mg hSA + 1 mg A1PI; for Percent Eluted by Fraction, 1M NaCl / Percent Eluted by Fraction, 2% Ac. Acid / Percent Eluted by Fraction, 3M NaCl / Percent Eluted by Fraction, Flow: relative to total eluted
Protocol: Confirmatory binding assays were performed in a column chromatographic format on a microbore HPLC using individual peptide sequences synthesized directly onto the Toyopearl 650 M Chelate resin which had been modified with Totda followed by an alanine residue (A-Totda-Toyopearl), at a final substitution density of 0.1 mmole/g resin. The resin was packed into 0.4×5 cm columns (Thomson, Springfield, Va.) and tested on the Michrom HPLC system (Michrom BioResources, Auburn, Calif.). The elution program for all trials utilized the following method. The column was pre-equilibrated with equilibration buffer (as above). 1 ml of sample was injected and allowed sufficient time to flowthrough the column using equilibration buffer. The column was then washed with step elutions of 1M NaCl and 3M NaCl in equilibration buffer. The column was exposed to equilibration buffer with 0.1M NaCl. Any remaining protein was eluted with elution buffer (2% by volume glacial acetic acid in water).
A Gilson FC204 fraction collector at the HPLC outlet collected individual eluates for further analysis. Fractions collected from the 2% acetic acid eluates were neutralized with 2M Tris, pH 10.5 to bring the pH to neutrality. The protein samples were reconstituted in equilibration buffer unless otherwise stated. The samples were analyzed by the integration of the absorbance at 280 nm or by immunonephelometry. The specific method of determination is presented for each figure.
Columns were assayed with a mixture of 5 mg human serum albumin (hSA)+1 mg AlPI at 4° C. (Table 4, Seq. ID 1-11, 15, 17) and 20° C. (Table 5, Seq. ID 1-10, 13, 15, 17). The chromatography method was modified to provide for a 10 minute residence time of sample in the column by decreasing the flow to 17 μl/min (10 cm/hr) upon injection. Following the incubation, the flow was set at 865 μl/min (413 cm/hr) for the step elutions of 1M NaCl, 3M NaCl, and 2% acetic acid. The mass balances presented are based upon immunonephelometry. The Percent Eluted value is protein-specific and based on the amount of the protein eluted in a […]

[4] = biological target: T2, apolipoprotein alpha-1 (Apo A-1) (Homo sapiens, UniProt P02647); assay: Purification from Effluent II+III, Apo A-1 mass balance; format: binding; details: 1 ml Eff. II+III, 4° C.
T2 construct: Eff; II+III is a process intermediate in the Cohn plasma fractionation process; tissue Bayer Corporation (Clayton, N.C.); host or cells: plasma fraction: Cohn Effluent II+III
Protocol: as §1, §2

Immunoglobulin A (IgA) = assay: Purification from Effluent II+III, IgA mass balance; format: binding, human; details: 1 ml Eff. II+III, 4° C.
Protocol: as §1, §2

[5] = 20° C., * Below detection limit
[6] = A1PI, * as in Tables 4, 5 (below detection limit)
[7] = * as in Tables 4, 5 (below detection limit)
[8] = 1 mg A1PI in equilibration buffer, 4° C.
[9] = 1 mg A1PI in equilibration buffer, 20° C.

T1 sequence (P01009 25-418): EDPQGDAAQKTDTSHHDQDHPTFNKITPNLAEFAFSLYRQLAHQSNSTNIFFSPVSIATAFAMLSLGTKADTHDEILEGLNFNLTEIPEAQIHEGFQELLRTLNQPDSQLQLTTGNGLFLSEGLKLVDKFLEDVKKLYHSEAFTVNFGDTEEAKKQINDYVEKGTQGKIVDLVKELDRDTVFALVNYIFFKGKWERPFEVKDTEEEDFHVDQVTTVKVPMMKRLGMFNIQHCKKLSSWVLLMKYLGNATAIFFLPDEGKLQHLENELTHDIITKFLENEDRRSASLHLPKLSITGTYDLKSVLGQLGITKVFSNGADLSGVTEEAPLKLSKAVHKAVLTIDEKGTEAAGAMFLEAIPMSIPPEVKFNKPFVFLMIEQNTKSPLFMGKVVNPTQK
T2 sequence (P02647 19-267): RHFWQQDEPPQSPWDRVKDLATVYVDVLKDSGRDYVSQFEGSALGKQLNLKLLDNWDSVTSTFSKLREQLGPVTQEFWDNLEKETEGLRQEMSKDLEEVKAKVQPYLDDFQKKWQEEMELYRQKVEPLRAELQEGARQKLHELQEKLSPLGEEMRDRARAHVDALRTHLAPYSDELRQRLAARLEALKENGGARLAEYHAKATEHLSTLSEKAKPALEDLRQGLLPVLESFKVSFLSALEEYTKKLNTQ

## V I N L V R: VIWLVR with Trp at position 3 replaced by Asn (VINLVR)
A1PI [1]; Table 11
  Mass A1PI per Eluate Fraction, 2% Acetic Acid: 0.53 mg
  Mass A1PI per Eluate Fraction, Flowthrough: 0.44 mg
A1PI [1]; Table 11, A1PI
  Percent Eluted by Fraction, 1M NaCl: 0%
  Percent Eluted by Fraction, 2% Acetic Acid: 55%
  Percent Eluted by Fraction, Flowthrough: 45%
A1PI [2]; 4° C.
  % of Total A1PI Eluted by Fraction (Based on Absorbance at 280 nm), 1M NaCl: 8%
  % of Total A1PI Eluted by Fraction (Based on Absorbance at 280 nm), 2% Acetic Acid: 92%
  % of Total A1PI Eluted by Fraction (Based on Absorbance at 280 nm), Flowthrough: 0%
A1PI [2]; 20° C.
  % of Total A1PI Eluted by Fraction (Based on Absorbance at 280 nm), 1M NaCl: 7%
  % of Total A1PI Eluted by Fraction (Based on Absorbance at 280 nm), 2% Acetic Acid: 93%
  % of Total A1PI Eluted by Fraction (Based on Absorbance at 280 nm), Flowthrough: 0%

## V I S L V R: VIWLVR with Trp at position 3 replaced by Ser (VISLVR)
A1PI [1]; Table 11
  Mass A1PI per Eluate Fraction, 1M NaCl: 0.14 mg
  Mass A1PI per Eluate Fraction, 2% Acetic Acid: 0.26 mg
  Mass A1PI per Eluate Fraction, Flowthrough: 0.14 mg
A1PI [1]; Table 11, A1PI
  Percent Eluted by Fraction, 1M NaCl: 26%
  Percent Eluted by Fraction, 2% Acetic Acid: 49%
  Percent Eluted by Fraction, Flowthrough: 25%
A1PI [2]; 4° C.
  % of Total A1PI Eluted by Fraction (Based on Absorbance at 280 nm), 1M NaCl: 100%
  % of Total A1PI Eluted by Fraction (Based on Absorbance at 280 nm), 2% Acetic Acid: 0%
  % of Total A1PI Eluted by Fraction (Based on Absorbance at 280 nm), Flowthrough: 0%
A1PI [2]; 20° C.
  % of Total A1PI Eluted by Fraction (Based on Absorbance at 280 nm), 1M NaCl: 75%
  % of Total A1PI Eluted by Fraction (Based on Absorbance at 280 nm), 2% Acetic Acid: 14%
  % of Total A1PI Eluted by Fraction (Based on Absorbance at 280 nm), Flowthrough: 11%

## V I V L V R: VIWLVR with Trp at position 3 replaced by Val (VIVLVR)
A1PI [1]; Table 11
  Mass A1PI per Eluate Fraction, 1M NaCl: 0.04 mg
  Mass A1PI per Eluate Fraction, 2% Acetic Acid: 0.50 mg
  Mass A1PI per Eluate Fraction, Flowthrough: 0.31 mg
A1PI [1]; Table 11, A1PI
  Percent Eluted by Fraction, 1M NaCl: 4%
  Percent Eluted by Fraction, 2% Acetic Acid: 59%
  Percent Eluted by Fraction, Flowthrough: 37%
A1PI [2]; 4° C.
  % of Total A1PI Eluted by Fraction (Based on Absorbance at 280 nm), 1M NaCl: 5%
  % of Total A1PI Eluted by Fraction (Based on Absorbance at 280 nm), 2% Acetic Acid: 95%
  % of Total A1PI Eluted by Fraction (Based on Absorbance at 280 nm), Flowthrough: 0%

## YKFRFW
A1PI [3]; 4° C., * Below detection limit
  Mass Protein per Eluate Fraction, 1M NaCl: 0.28 mg
  Mass Protein per Eluate Fraction, 2% Ac. Acid: 0.46 mg
  Mass Protein per Eluate Fraction, 3M NaCl: 0.04 mg
A1PI [3]; 4° C.
  Percent Eluted by Fraction, 1M NaCl: 36%
  Percent Eluted by Fraction, 2% Ac. Acid: 60%
  Percent Eluted by Fraction, 3M NaCl: 5%
  Percent Eluted by Fraction, Flow: 0%
A1PI [3]; [5]
  Mass Protein per Eluate Fraction, 1M NaCl: 0.16 mg
  Mass Protein per Eluate Fraction, 2% Ac. Acid: 0.30 mg
  Mass Protein per Eluate Fraction, Flow: 0.41 mg
A1PI [3]; 20° C.
  Percent Eluted by Fraction, 1M NaCl: 18%
  Percent Eluted by Fraction, 2% Ac. Acid: 34%
  Percent Eluted by Fraction, 3M NaCl: 0%
  Percent Eluted by Fraction, Flow: 48%
A1PI [1]; A1PI
  Percent Eluted by Fraction, 1M NaCl: 5%
  Percent Eluted by Fraction, 2% Acetic Acid: 81%
  Percent Eluted by Fraction, 3M NaCl: 0%
  Percent Eluted by Fraction, Flow: 14%
A1PI [1]; [6]
  Mass Protein per Eluate Fraction, 1M NaCl: 0.06 mg
  Mass Protein per Eluate Fraction, 2% Acetic Acid: 0.92 mg
  Mass Protein per Eluate Fraction, Flow: 0.16 mg
[4]
  Percent Eluted by Fraction, 1M NaCl: 0%
  Percent Eluted by Fraction, 2% Acetic Acid: 100%
  Percent Eluted by Fraction, 3M NaCl: 0%
  Percent Eluted by Fraction, Flow: 0%
[4]; [7]
  Mass Protein per Eluate Fraction, 2% Acetic Acid: 0.31 mg
A1PI [2]; [8]
  Percent A1PI Eluted by Fraction Based on Absorbance at 280 nm, 1M NaCl: 64%
  Percent A1PI Eluted by Fraction Based on Absorbance at 280 nm, 2% Acetic Acid: 36%
  Percent A1PI Eluted by Fraction Based on Absorbance at 280 nm, Flowthrough: 0%
A1PI [2]; [9]
  Percent A1PI Eluted by Fraction, 1M NaCl: 75%
  Percent A1PI Eluted by Fraction, 2% Acetic Acid: 25%
  Percent A1PI Eluted by Fraction, Flowthrough: 0%
Immunoglobulin A (IgA)
  Percent Eluted by Fraction, 1M NaCl: 33%
  Percent Eluted by Fraction, 2% Acetic Acid: 30%
  Percent Eluted by Fraction, 3M NaCl: 0%
  Percent Eluted by Fraction, Flow: 37%
Immunoglobulin A (IgA); [7]
  Mass Protein per Eluate Fraction, 1M NaCl: 0.11 mg
  Mass Protein per Eluate Fraction, 2% Acetic Acid: 0.10 mg
  Mass Protein per Eluate Fraction, Flow: 0.13 mg

From patent US5985836A, “Alpha-1 proteinase inhibitor binding peptides” (Bayer Corporation, priority 1998, dated 1999)
